Measurements from patent US10562947B2, “Compositions and methods for preventing or treating diseases, conditions or processes characterized by aberrant fibroblast proliferation and extracellular matrix deposition” (MOERAE MATRIX, INC., priority 2011, dated 2020).
Where a SMILES comes first, the peptide text is derived from it.

Key:
CK2α2(h) = CK2α2(h) (Homo sapiens, UniProt P19784); assay: Kinase Profiling Assay; type: biochemical; details: 100 μM peptide
How it was run: (§1)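 Each kinase in a 266-member human panel is assayed, in duplicate, for activity in the presence of MK2 inhibitory peptides to gauge specificity.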

IGF-1R(h) = target: T1, IGF-1R(h) (Homo sapiens, UniProt P08069); assay: Kinase Profiling Assay; type: biochemical; details: 100 μM peptide
T1 construct: purchased Millipore
How it was run: as §1

JNK1α1(h) = target: T2, JNK1α1(h) (Homo sapiens, UniProt P45983); assay: Kinase Profiling Assay; type: biochemical; details: 100 μM peptide
T2 construct: purchased Millipore
T2 sequence (P45983 1-384 isoform P45983-2): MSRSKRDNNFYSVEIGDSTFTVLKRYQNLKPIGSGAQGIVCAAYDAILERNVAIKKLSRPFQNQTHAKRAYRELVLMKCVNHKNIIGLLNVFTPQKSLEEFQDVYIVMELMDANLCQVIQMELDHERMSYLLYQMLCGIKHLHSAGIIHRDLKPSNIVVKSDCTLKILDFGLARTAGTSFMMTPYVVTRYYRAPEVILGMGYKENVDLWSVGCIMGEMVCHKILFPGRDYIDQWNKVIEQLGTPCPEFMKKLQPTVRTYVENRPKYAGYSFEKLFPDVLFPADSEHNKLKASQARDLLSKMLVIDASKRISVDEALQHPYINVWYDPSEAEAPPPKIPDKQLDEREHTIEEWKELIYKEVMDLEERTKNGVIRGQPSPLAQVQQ
How it was run: as §1

MAPK1(h) = MAPK1(h) (Homo sapiens, UniProt P27361); assay: Kinase Profiling Assay; type: biochemical; details: 100 μM peptide
Chain of MAPK1(h) (P27361 whole entry): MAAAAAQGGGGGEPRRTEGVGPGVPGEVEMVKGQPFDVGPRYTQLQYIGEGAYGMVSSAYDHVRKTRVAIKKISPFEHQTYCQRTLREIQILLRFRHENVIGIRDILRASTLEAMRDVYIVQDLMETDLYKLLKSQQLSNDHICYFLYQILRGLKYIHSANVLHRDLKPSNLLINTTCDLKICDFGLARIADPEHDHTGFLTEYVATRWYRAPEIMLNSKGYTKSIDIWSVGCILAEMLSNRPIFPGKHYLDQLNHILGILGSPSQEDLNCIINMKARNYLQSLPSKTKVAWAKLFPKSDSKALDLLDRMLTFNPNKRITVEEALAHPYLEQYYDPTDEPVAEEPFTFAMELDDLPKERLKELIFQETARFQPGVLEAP
How it was run: as §1

MKK7β(h) = target: T3, MKK7β(h) (Homo sapiens, UniProt O14733); assay: Kinase Profiling Assay; type: biochemical; details: 100 μM peptide
T3 sequence (O14733 1-419): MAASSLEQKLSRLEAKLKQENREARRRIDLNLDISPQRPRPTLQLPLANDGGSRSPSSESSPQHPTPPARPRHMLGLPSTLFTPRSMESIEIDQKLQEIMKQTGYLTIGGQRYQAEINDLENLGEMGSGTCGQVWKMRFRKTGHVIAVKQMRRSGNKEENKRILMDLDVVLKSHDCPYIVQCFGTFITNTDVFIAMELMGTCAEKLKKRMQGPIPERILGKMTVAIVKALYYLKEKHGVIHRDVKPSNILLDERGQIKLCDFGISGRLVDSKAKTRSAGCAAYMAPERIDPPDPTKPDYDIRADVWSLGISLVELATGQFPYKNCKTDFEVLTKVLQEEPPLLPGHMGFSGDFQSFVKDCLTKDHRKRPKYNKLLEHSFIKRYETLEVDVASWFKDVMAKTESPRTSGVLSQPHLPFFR
How it was run: as §1

MRCKα(h) = MRCKα(h) (Homo sapiens, UniProt Q5VT25); assay: Kinase Profiling Assay; type: biochemical; details: 100 μM peptide
How it was run: as §1

Snk(h) = Snk(h) (Homo sapiens, UniProt Q9NYY3); assay: Kinase Profiling Assay; type: biochemical; details: 100 μM peptide
How it was run: as §1

Tie2(R849W)(h) = Tie2(R849W)(h) (Homo sapiens, UniProt Q02763, R849W); assay: Kinase Profiling Assay; type: biochemical; details: 100 μM peptide
Chain of Tie2(R849W)(h) (Q02763 23-1124 R849W): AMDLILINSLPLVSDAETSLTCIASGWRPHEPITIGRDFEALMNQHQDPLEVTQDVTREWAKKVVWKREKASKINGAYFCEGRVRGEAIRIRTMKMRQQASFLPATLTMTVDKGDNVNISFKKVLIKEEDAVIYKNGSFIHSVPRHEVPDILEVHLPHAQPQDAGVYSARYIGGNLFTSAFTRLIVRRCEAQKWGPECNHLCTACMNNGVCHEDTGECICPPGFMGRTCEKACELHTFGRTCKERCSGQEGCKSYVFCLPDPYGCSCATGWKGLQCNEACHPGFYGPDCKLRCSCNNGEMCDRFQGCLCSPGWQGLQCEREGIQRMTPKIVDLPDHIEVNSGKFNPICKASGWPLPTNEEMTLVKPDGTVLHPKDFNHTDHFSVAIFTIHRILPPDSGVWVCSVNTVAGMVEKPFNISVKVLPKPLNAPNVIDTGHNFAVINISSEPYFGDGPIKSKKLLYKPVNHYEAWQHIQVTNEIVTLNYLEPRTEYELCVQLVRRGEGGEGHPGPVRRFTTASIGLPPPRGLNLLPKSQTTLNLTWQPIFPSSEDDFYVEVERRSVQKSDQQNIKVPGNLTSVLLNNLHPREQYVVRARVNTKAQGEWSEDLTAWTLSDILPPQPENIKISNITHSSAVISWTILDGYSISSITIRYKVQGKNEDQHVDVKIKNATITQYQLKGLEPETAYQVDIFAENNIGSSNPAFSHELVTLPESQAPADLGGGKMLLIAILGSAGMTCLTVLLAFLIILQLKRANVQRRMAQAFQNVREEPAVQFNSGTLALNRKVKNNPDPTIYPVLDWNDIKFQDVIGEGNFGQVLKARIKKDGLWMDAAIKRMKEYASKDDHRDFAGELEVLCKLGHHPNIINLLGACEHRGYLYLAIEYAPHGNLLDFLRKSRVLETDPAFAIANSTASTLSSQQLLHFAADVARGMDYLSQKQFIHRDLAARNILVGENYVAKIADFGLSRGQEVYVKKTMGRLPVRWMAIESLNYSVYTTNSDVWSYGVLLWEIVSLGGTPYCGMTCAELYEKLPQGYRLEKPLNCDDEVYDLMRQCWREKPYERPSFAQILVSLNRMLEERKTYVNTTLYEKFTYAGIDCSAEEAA
How it was run: as §1

cKit(V560G)(h) = cKit(V560G)(h) (Homo sapiens, UniProt P10721, V560G); assay: Kinase Profiling Assay; type: biochemical; details: 100 μM peptide
How it was run: as §1

[1] = system: bleomycin-induced lung fibrosis in C57BL/6 mice; assay: Bleomycin mouse model of pulmonary fibrosis, prevention model (dosing day 7 to 21); type: in vivo; details: for collagen levels in the lung (Masson's blue trichrome), dose response: 25, 50 or 75 μg/kg daily IP, day 7 to 21
Method: A mouse model of pulmonary fibrosis was generated by administering 0.025 U of bleomycin/PBS intratracheally to C57BL/6 mice. […] At 21 day post bleomycin delivery (for prevention model) or 28 post bleomycin delivery (for treatment model), groups of mice were sacrificed with a sodium pentobarbital injection (120 mg/kg) and the chest cavity was opened. The right mainstem bronchus was ligated and the right lung was removed. The trachea was cannulated and the left lung was perfused with 4% formaldehyde at 21 cm H2O pressure. The tissue blocks then were embedded in paraffin, and […] sections were prepared for staining. Sections from each animal were stained with hematoxylin and eosin (H&E) to visualize cells or with Masson's Trichrome staining to highlight collagen deposition. […] Stained sections were mounted onto a labeled glass slide with organic mounting medium.
Briefly, fibrotic loci in the lungs of the mice were induced by delivering intratracheally about 0.025 U of bleomycin (dissolved in PBS) to C57BL/6 mice. […] Briefly, mice were sacrificed with a sodium pentobarbital injection (120 mg/kg) and the chest cavity was opened. The right mainstem bronchus was ligated and the right lung was removed. The trachea was cannulated and the left lung was perfused with 4% formaldehyde at 21 cm H2O pressure. The tissue blocks then were embedded in paraffin, and […] sections were prepared, and stained with hematoxylin and eosin (H&E; for pathological examination) or Masson's Trichrome (for collagen staining)
Next, total collagen levels in the lungs of the bleomycin-injured mice (FIG. 12) were analyzed quantitatively by computing a constant conversion factor (7.5) for collagen from hydroxyproline concentrations (Neuman R. and Logan M, J Biol Chem., 186(2):549-56, 1950, incorporated by reference).
Next, the effect of increasing doses of MK2 peptide inhibitors on collagen deposition was examined in vivo using the bleomycin mouse model of idiopathic pulmonary fibrosis (prevention model). Briefly, C57-BL/6 mice were subjected to bleomycin injury at day 0.

CK1γ3(h) = CK1γ3(h) (Homo sapiens, UniProt Q9Y6M4); assay: Kinase Profiling Assay; type: biochemical; details: 100 μM peptide
Chain of CK1γ3(h) (Q9Y6M4 whole entry): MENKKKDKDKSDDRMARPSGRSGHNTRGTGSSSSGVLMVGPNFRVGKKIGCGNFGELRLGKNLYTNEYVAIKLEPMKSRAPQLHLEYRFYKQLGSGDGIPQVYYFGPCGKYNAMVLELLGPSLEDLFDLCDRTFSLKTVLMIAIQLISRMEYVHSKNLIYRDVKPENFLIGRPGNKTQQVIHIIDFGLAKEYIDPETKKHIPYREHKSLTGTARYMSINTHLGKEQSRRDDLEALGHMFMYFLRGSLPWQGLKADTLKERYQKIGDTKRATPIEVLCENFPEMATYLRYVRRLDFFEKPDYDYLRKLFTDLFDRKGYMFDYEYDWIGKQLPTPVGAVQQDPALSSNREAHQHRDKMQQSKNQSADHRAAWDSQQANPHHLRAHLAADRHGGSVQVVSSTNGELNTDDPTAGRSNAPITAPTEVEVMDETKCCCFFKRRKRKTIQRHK
How it was run: as §1

PAK3(h) = PAK3(h) (Homo sapiens, UniProt O75914); assay: Kinase Profiling Assay; type: biochemical; details: 100 μM peptide
Chain of PAK3(h) (O75914 whole entry): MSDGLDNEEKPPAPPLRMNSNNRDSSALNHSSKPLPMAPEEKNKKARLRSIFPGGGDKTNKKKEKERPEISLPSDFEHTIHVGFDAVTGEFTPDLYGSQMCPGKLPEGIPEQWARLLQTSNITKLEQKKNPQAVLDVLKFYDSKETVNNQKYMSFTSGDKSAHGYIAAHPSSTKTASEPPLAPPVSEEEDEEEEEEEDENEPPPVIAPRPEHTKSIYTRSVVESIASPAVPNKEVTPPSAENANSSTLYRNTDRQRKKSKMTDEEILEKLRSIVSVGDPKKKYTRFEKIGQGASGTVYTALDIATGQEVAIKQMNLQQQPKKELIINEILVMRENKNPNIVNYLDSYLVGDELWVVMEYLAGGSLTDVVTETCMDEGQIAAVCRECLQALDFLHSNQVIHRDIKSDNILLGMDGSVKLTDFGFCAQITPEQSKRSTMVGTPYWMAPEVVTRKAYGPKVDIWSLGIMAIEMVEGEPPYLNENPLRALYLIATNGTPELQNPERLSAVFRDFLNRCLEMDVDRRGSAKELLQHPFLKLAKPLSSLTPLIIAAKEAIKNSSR
How it was run: as §1

PAR-1Bα(h) = PAR-1Bα(h) (Homo sapiens, UniProt Q7KZI7); assay: Kinase Profiling Assay; type: biochemical; details: 100 μM peptide
Chain of PAR-1Bα(h) (Q7KZI7 1-725 isoform Q7KZI7-4): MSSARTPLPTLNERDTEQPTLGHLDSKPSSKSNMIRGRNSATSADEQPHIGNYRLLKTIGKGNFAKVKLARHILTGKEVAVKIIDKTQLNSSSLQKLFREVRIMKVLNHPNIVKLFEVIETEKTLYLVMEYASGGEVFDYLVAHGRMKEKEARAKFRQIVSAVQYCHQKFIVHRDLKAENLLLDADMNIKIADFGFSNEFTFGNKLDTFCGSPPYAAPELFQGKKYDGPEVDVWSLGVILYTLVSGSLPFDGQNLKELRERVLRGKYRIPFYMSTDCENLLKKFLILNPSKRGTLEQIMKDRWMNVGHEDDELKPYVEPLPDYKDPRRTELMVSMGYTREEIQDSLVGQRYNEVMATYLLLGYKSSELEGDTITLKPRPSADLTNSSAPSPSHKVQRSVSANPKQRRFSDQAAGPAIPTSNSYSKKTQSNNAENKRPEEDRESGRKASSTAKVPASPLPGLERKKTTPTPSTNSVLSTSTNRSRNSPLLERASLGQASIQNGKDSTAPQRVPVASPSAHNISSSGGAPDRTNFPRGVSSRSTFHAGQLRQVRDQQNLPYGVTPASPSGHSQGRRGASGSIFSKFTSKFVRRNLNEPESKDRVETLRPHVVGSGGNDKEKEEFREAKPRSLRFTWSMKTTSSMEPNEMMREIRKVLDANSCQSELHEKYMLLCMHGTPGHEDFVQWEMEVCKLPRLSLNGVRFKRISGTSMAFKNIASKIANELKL
How it was run: as §1

PKA(h) = PKA(h) (Homo sapiens, UniProt P17612); assay: Kinase Profiling Assay; type: biochemical; details: 100 μM peptide
How it was run: as §1

Abl(H396P)(h) = Abl(H396P)(h) (Homo sapiens, UniProt P00519, H396P); assay: Kinase Profiling Assay; type: biochemical; details: 100 μM peptide
How it was run: as §1

Abl(M351T)(h) = Abl(M351T)(h) (Homo sapiens, UniProt P00519, M351T); assay: Kinase Profiling Assay; type: biochemical; details: 100 μM peptide
How it was run: as §1

Aurora-A(h) = target: T4, Aurora-A(h) (Homo sapiens, UniProt O14965); assay: Kinase Profiling Assay; type: biochemical; details: 100 μM peptide
T4 sequence (O14965 1-403): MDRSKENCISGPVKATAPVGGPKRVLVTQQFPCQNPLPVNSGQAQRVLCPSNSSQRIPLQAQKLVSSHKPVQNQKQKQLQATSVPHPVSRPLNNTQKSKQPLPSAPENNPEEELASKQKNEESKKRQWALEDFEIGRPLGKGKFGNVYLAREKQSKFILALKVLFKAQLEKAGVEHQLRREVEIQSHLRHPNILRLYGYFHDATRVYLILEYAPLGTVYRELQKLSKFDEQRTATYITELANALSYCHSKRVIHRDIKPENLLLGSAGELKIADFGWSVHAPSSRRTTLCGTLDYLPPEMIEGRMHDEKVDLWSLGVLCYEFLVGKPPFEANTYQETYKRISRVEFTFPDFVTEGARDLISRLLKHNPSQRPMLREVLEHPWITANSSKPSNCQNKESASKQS
How it was run: as §1

Lck(h) = Lck(h) (Homo sapiens, UniProt P06239); assay: Kinase Profiling Assay; type: biochemical; details: 100 μM peptide
Chain of Lck(h) (P06239 whole entry): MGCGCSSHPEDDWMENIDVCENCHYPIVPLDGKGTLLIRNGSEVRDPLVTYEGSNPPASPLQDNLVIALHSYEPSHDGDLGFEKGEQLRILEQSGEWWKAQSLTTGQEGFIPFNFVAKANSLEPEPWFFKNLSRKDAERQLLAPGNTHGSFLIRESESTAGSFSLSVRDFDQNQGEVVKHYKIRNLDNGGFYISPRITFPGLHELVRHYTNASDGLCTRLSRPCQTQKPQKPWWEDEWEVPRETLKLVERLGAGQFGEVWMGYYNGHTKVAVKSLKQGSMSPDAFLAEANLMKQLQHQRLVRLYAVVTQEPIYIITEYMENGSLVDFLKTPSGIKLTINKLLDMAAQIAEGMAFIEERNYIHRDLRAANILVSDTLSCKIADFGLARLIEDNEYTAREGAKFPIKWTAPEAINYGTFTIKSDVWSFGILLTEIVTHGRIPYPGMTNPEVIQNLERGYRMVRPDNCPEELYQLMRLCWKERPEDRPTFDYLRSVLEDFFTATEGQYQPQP
How it was run: as §1

[2] = nebulization or intraperitoneal, daily day 7 to 21, lung at day 21

Chain of CK2α2(h) (P19784 whole entry): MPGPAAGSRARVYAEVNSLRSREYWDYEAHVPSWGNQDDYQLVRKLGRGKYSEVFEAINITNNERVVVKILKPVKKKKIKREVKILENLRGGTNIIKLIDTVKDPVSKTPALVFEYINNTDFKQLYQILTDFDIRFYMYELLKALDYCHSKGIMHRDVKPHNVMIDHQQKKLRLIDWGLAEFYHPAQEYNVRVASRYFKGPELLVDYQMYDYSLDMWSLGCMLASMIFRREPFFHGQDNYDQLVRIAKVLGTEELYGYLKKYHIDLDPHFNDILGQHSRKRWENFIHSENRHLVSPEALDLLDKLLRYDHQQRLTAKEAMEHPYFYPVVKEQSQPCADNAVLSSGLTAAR

Row | Molecule | CK2α2(h) % activity (CK2α2(h)) [%] | IGF-1R(h) % activity (IGF-1R(h)) [%] | JNK1α1(h) % activity (JNK1α1(h)) [%] | MAPK1(h) % activity (MAPK1(h)) [%] | MKK7β(h) % activity (MKK7β(h)) [%] | MRCKα(h) % activity (MRCKα(h)) [%] | Snk(h) % activity (Snk(h)) [%] | Tie2(R849W)(h) % activity (Tie2(R849W)(h)) [%] | cKit(V560G)(h) % activity (cKit(V560G)(h)) [%] | collagen levels in the lung (Masson's blue trichrome), dose response [1] | CK1γ3(h) % activity (CK1γ3(h)) [%] | PAK3(h) % activity (PAK3(h)) [%] | PAR-1Bα(h) % activity (PAR-1Bα(h)) [%] | PKA(h) % activity (PKA(h)) [%] | Abl(H396P)(h) % activity (Abl(H396P)(h)) [%] | Abl(M351T)(h) % activity (Abl(M351T)(h)) [%] | Aurora-A(h) % activity (Aurora-A(h)) [%] | Lck(h) % activity (Lck(h)) [%] | further results
1 | KAFAKLAARLYRKALARQLGVAA [MMI-0400] | 96 | 90 | 98 | 100 | 94 | 97 | 131 | 108 | 124 |  |  |  |  |  |  |  |  |  | 
2 | CC(C)C[C@H](NC(=O)[C@H](C)NC(=O)[C@H](CCCCN)NC(=O)[C@H](C)NC(=O)[C@H](CCCNC(=N)N)NC(=O)[C@H](C)NC(=O)[C@H](CCC(N)=O)NC(=O)[C@H](CCCNC(=N)N)NC(=O)[C@H](C)NC(=O)[C@H](C)NC(=O)[C@H](C)NC(=O)[C@H](CCCNC(=N)N)NC(=O)[C@H](C)NC(=O)[C@@H](N)Cc1ccc(O)cc1)C(=O)N[C@@H](C)C(=O)N[C@@H](CCCNC(=N)N)C(=O)N[C@@H](CCC(N)=O)C(=O)N[C@@H](CC(C)C)C(=O)NCC(=O)N[C@H](C(=O)N[C@@H](C)C(=O)N[C@@H](C)C(=O)O)C(C)C [MMI-0100] (H-YARAAARQARAKALARQLGVAA-OH; N-terminus and C-terminus assumed) |  |  |  |  |  |  |  |  |  | decrease in collagen levels |  |  |  |  |  |  |  |  | collagen accumulation (Masson's Trichrome staining) [1, 2]: reduced collagen accumulation; fibrotic loci formation (H&E staining) [1, 2]: significantly reduced development of fibrotic loci formation; total collagen levels in the lungs (from hydroxyproline) ([1]; nebulized or systemic (IP), post-inflammatory/pre-fibrotic stage, vs bleomycin control): significantly decreased collagen deposition
3 | YARAAARQARAKALNRQLGVA (Mammalian) [MMI-0200] | 88 | 49 |  | 97 |  |  |  | 89 |  | did not reduce, but rather increased the collagen deposition | 96 | 50 | 110 | 110 |  |  |  |  | 
4 | FAKLAARLYRKALARQLGVAA [MMI-0300] |  |  | 97 |  | 100 |  |  |  |  |  | 125 | 140 |  |  | 101 | 90 | 92 | −2 | 
5 | HRRIKAWLKKIKALARQLGVAA (Mammalian) [MMI-0500] |  |  |  |  |  | 5 | 122 |  | 198 |  |  |  | 97 | 118 | 51 | 61 | 110 | 359 | 
